According to patent US20250152742A1, “COMPOSITIONS AND METHODS FOR NEUROLOGICAL DISEASES” (Trames Bio, Inc., priority 2022, published 2025):

Assays:
[1] = test system: engineered receptors and wildtype nAchRa7 receptor expressed in HEK293 cells; assay: Whole cell manual patch clamp electrophysiology, EC50, HEK293 cells; type: cell-based, human; conditions: for EC50: ligand TC-5619, HEK293 cell line, read-out: Manual patch clamp based EC50, TC-5619
Procedure: (§1) Using whole cell manual patch clamp electrophysiology in HEK293 cells, rat DRG neurons and rat hippocampal neurons, the EC50 of the various engineered receptors disclosed herein to Ach and non-native ligands was measured using the Hill equation with peak current measurements from escalating doses of ligand. The rheobase shift was also measured in rat DRG neurons, which reflects the efficacy of the receptors. To calculate the rheobase, first, the amount of current that can produce an action potential was determined. Then the ligand was added, followed by a step wise increase in the current injected up to 700 pA.
(§2) For manual patch clamp experiments, Cells plated on coverslips were visualized at 10x and 40x on an inverted fluorescence microscope (Olympus). Recordings were made with an Axopatch 200B amplifier and Digidata 1550B (Molecular Devices) at RT using 3-6 MOhm glass patch electrodes (Sutter, BF150-86-10). Unless otherwise stated, recordings were made in extracellular solution (ECS) containing: 140 mM sodium chloride, 4 mM potassium chloride, 1 mM magnesium chloride, 2 mM calcium chloride, 10 mM HEPES, and 10 mM D-(+)-glucose (pH=7.3 with sodium hydroxide, osmolarity=305-315 mOsm). An 8-line reservoir (AutoMate Scientific) in combination with an 8-channel zero-dead-volume perfusion pencil (AutoMate Scientific) was used for perfusion. Data was acquired using pClamp software (Molecular Devices). Traces were either analyzed in Clampfit (Molecular Devices) or using custom Python code. Plotting and statistics were performed in GraphPad Prism.
For dose-response, ligand-induced currents were recorded in voltage clamp mode. For HEK cell experiments, recordings took place in the normal ECS with a cesium-based internal solution containing: 140 mM cesium chloride, 5 mM potassium fluoride, 2 mM Calcium chloride, 2 mM magnesium chloride, 10 mM HEPES, and 10 mM EGTA (pH=7.2 with cesium hydroxide, osmolarity=290-295 mOsm). For DRG neuron experiments, cells were patched in normal ECS and then switched to an NMDG-based ECS to prevent endogenous cation currents, containing: 145 mM N-methyl-D-glucamine, 4 mM potassium chloride, 0.5 mM magnesium chloride, 0.5 mM calcium chloride, 10 mM HEPES, and 10 mM D-(+)-glucose (pH=7.4 with hydrochloric acid, osmolarity=305-315mOsm). […] Capacitance and series resistance were compensated. Drugs tested include acetycholine chloride and other synthetic compounds. Drug doses were applied for 1-10 sec until the peak of the current was observed, and washes occurred for at least 2 min between dose applications. The holding current was subtracted from the peak to find the current amplitude.
Cell culture: HEK 293 cells were routinely subcultured in DMEM with 10% fetal bovine serum (ThermoFisher Scientific). […]

[2] = test system: engineered receptors expressed in rat DRG neurons; assay: Manual patch clamp ligand-induced chloride currents / EC50, rat DRG neurons; type: cell-based; conditions: for EC50: ligand TC-5619, Rat DRG Neurons, read-out: Manual patch clamp based EC50, TC-5619
Procedure: as §1, §2
For dose-response, ligand-induced currents were recorded in voltage clamp mode. For HEK cell experiments, recordings took place in the normal ECS with a cesium-based internal solution containing: 140 mM cesium chloride, 5 mM potassium fluoride, 2 mM Calcium chloride, 2 mM magnesium chloride, 10 mM HEPES, and 10 mM EGTA (pH=7.2 with cesium hydroxide, osmolarity=290-295 mOsm). […]

[3] = test system: rat DRG neurons; assay: Rheobase shift / evoked action potentials, rat DRG neurons (current clamp); type: cell-based; conditions: for Rheobase Shift; Rat DRG Neurons, Baseline: no ligand, neurons expressing the receptor; for Rheobase Shift; Rat DRG Neurons, +TC-5619 @ EC90: ligand TC-5619 at EC90
Procedure: as §1
DRG rheobase experiments were performed in current clamp mode using a potassium-based internal solution containing: 100 mM potassium D-gluconate, 28 mM potassium chloride, 1 mM magnesium chloride hexahydrate, 5 mM magnesium ATP, 10 mM HEPES, and 0.5 mM EGTA (pH=7.2 with potassium hydroxide, osmolarity=290-295 mOsm, calculated liquid junction potential=−13.5 mV). To measure DRG input resistance and rheobase, 500 ms current steps (−200 pA to 700 pA) were applied the membrane in the presence and absence of a compound. No holding current was applied to the membrane for cells included in the final datasets. Data were acquired at 10 kHz, with Bessel filter at 2 kHz and series resistance compensation at 100%. Rheobase was defined as the smallest depolarizing current injection required to cause an action potential to fire in the cell. In a subset of cells, the rheobase was ambiguous, since the action potential appeared to be graded in amplitude. In these cases, a […] of the trace clarified the rheobase. Input resistance was measured from the negative current injections, calculated as the difference in membrane potential at steady state divided by the current injection amplitude and then averaged across the four negative current steps for each recording. Resting membrane potential was measured from the first 100 ms of each sweep, averaged for each recording, and corrected for liquid junction potential. One-way ANOVA with multiple comparisons was used to test for significance of difference in rheobase and input resistance between baseline, drug, and wash conditions.
DRG neurons: DRG rheobase experiments were performed in current clamp mode using a potassium-based internal solution containing (in mM): 100 potassium D-gluconate (G4500), 28 potassium chloride (P9333), 1 magnesium chloride hexahydrate (M2670), 5 magnesium ATP (A9187), 10 HEPES (54457), and 0.5 EGTA (3777) (pH=7.2 with potassium hydroxide, osmolarity=290-295 mOsm, calculated liquid junction potential=−13.5 mV). To measure DRG input resistance and rheobase, 500 ms current steps (−200 pA to 700 pA) were applied the membrane (−400 pA to 700 pA in an early version of the protocol) in the presence and absence of a compound. No holding current was applied to the membrane for cells included in the final datasets. Data were acquired at 10 kHz, with Bessel filter at 2 kHz and series resistance compensation at 100%. Rheobase was defined as the smallest depolarizing current injection required to cause an action potential to fire in the cell. In a subset of cells, the rheobase was ambiguous, since the action potential appeared to be graded in amplitude. In these cases, a […] of the trace clarified the rheobase. Input resistance was measured from the negative current injections, calculated as the difference in membrane potential at steady state divided by the current injection amplitude and then averaged across the four negative current steps for each recording. Resting membrane potential was measured from the first 100 ms of each sweep, averaged for each recording, and corrected for liquid junction potential. One-way ANOVA with multiple comparisons was used to test for significance of difference in rheobase and input resistance between baseline, drug, and wash conditions.

[4] = HEK293 cells and cultured rat DRG sensory neurons

Molecule	sensitivity to RG-3487 compared to wildtype nAchRa7 receptor [1, 4]	sensitivity to acetylcholine compared to wildtype nAchRa7 receptor [1, 4]	chloride current on application of RG-3487 (SA-2) ([2]; cultured adult rat DRG neurons, not observed in non-transduced cells, FIG. 3)	effect on evoked action potentials ([3]; Acetylcholine at 3.0 mM, transduced neurons, n=4, FIG. 4B)	current injection evoked action potentials ([3]; RG-3487 (SA-2) at 3 μM, transduced rat DRG neurons, FIG. 4A)	increase in the current required to elicit action potentials ([3]; RG-3487 (SA-2) at 3 μM, transduced rat DRG neurons, n=7) [x]	Rheobase Shift; Rat DRG Neurons, Baseline [3] [pA]	Rheobase Shift; Rat DRG Neurons, Facinicline/RG-3487 @ EC90 ([3]; ligand Facinicline/RG-3487 at EC90) [pA]	EC50 [1] [nM]	EC50 [2] [nM]	Rheobase Shift; Rat DRG Neurons, +TC-5619 @ EC90 [3] [pA]
CODA806: engineered receptor: Y115D, L131Q in SEQ ID NO: 33 (Chemogenic receptor-11) (protein, synthetic sequence of chimeric LGIC) MRCSPGGVWLALAASLLHVSLQGEFQRKLYKELVKNYNPLERPVANDSQPLTVYFSLSLLQIMDVDEKNQVLTTNIWLQMSWTDHYLQWNVSEYPGVKTVRFPDGQIWKPDILLDNSADERFDATFHTNVQVNSSGHCQYLPPGIFKSSCPMDLKNFPMDVQTCKLKFGSWSYGGWSLDLQMQEADISGYIPNGEWDLVGIPGKRSERFYECCKEPYPDVTFTVTMRRRMGYYLIQMYIPSLLIVILSWISFWINMDAAPARVGLGITTVLTMTTQSSGSRASLPKVSYVKAIDIWMAVCLLFVFSALLEYAAVNFVSRQHKELLRFRRKRRHHKSPMLNLFQEDEAGEGRFNFSAYGMGPACLQAKDGISVKGANNSNTTNPPPAPSKSPEEMRKLFIQRAKKIDKISRIGFPMAFLIFNMFYWIIYKIVRREDVHNQ	way more sensitive to RG-3487	essentially insensitive to acetylcholine	generated chloride current in a dose dependent manner	no effect	reversibly inhibits current injection evoked action potentials	~3	163 ± 28	625 ± 35			
COAD1056 (protein, synthetic sequence of chimeric LGIC) MRCSPGGVWLALAASLLHVSLQGEFQRKLYKELVKNYNPLERPVANDSQPLTVYFSLSLLQIMDVDEKNQVLTTNIWLQMSWTDHYLQWNVSEYPGVKTVFFPDGQIWKPDILLENSADERFDATFHTNVLVNSSGHCQYLPPGIFKSSCPMDLKNFPMDVQTCKLKFGSWSYGGWSLDLQMQEADISGYIPNGEWDLVGIPGKRSERFWECCKEPYPDVTFTVTMRRRMGYYLIQMYIPSLLIVILSWISFWINMDAAPARVGLGITTVLTMTTQSSGSRASLPKVSYVKAIDIWMAVCLLFVFSALLEYAAVNFVSRQHKELLRFRRKRRHHKSPMLNLFQEDEAGEGRFNFSAYGMGPACLQAKDGISVKGANNSNTTNPPPAPSKSPEEMRKLFIQRAKKIDKISRIGFPMAFLIFNMFYWIIYKIVRREDVHNQ							114 ± 12		96	116	632 ± 43
COAD1055 (protein, synthetic sequence of chimeric LGIC) MRCSPGGVWLALAASLLHVSLQGEFQRKLYKELVKNYNPLERPVANDSQPLTVYFSLSLLQIMDVDEKNQVLTTNIWLQMSWTDHYLQWNVSEYPGVKTVWFPDGQIWKPDILLENSADERFDATFHTNVLVNSSGHCQYLPPGIFKSSCPMDLKNFPMDVQTCKLKFGSWSYGGWSLDLQMQEADISGYIPNGEWDLVGIPGKRSERFWECCKEPYPDVTFTVTMRRRMGYYLIQMYIPSLLIVILSWISFWINMDAAPARVGLGITTVLTMTTQSSGSRASLPKVSYVKAIDIWMAVCLLFVFSALLEYAAVNFVSRQHKELLRFRRKRRHHKSPMLNLFQEDEAGEGRFNFSAYGMGPACLQAKDGISVKGANNSNTTNPPPAPSKSPEEMRKLFIQRAKKIDKISRIGFPMAFLIFNMFYWIIYKIVRREDVHNQ							83 ± 7		16	56	562 ± 35
